In the supplement of paper PMC12764529:
± gives the half width of the 95% confidence interval.

Test: folding stability dG unfold from trypsin proteolysis; higher = more stable
Description: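 Folding stability of de novo designed mini-proteins (<80 aa, no Cys; designed by TrROS, TrMRF, ProteinMPNN and the joint model) was measured by cDNA display proteolysis with trypsin and chymotrypsin. Each protease was used at 11 concentrations in a threefold dilution series plus a no-protease condition. K50 was inferred by Bayesian fitting of sequencing counts, and dG unfold was derived against a sequence-predicted unfolded-state K50 (Tsuboyama et al. method). Sequences shown include variable-length N-terminal GS-type padding (SAGGSAGG...) inside a display construct carrying a PA tag. Rows were kept only if the AF2 dimer inter-PAE was >15, to exclude likely homo-oligomers.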

Point of comparison: “SAGGSAGGSYPIFDKEKGKLDPGPPEKELDVVIKVKKDGKWYPIDLKLSKSDLIRFVKELEKDSAGGSAGGS [r20_148_TrMRF]”, “folding stability dG unfold” value -0.698 ± 0.24 kcal/mol. Against it:
- SAGGSPYRIKFEFPNGPKFEFPVKITEIQPPNGNLYANITAQDDGKPHELMFPAPNIRPVEIEPPPSAGGSA [r2_319_TrROS] — within error, -0.796 ± 0.69 kcal/mol
- SAGGSAGGMPSDTPFTITKITSVTLNDGRGTTKAVVSYPDGSLVTISSSELERLTKENPNLNLVSAGGSAGG [r6_78_JUSTAS] — higher, 0.384 ± 0.062 kcal/mol
- SAGGSAGGNVKIEVEPGPNGNYLIKIRMPNGTKVEHQFDSPEDAEERAKDFAEEFPPNAQVEIWSAGGSAGG [r6_464_TrROS] — higher, -0.00876 ± 0.14 kcal/mol
- SAGGGSSMVTTVIPVLRTETLFDENGNVIGPRTTVETIELEAEVPLPPRPPLVFSFVPPELRDPAVLLSAGG [r13_508_JUSTAS] — within error, -0.299 ± 0.24 kcal/mol
- SAGGSAGGSAGKIKAYAEKDVPAEIVAKAIEEEIREAFPDNPEEIKGIEVEPDGFLSETISAGGSAGGSAGG [r17_43_TrMRF] — within error, -0.636 ± 0.15 kcal/mol
- SAITIMIPPNQTLEEIADELGFPGIKDVKHEPFEPGYYPATFEFPGDPDREIEIMFNPEPDWMMVEVEDSAG [r14_713_TrROS] — higher, 0.809 ± 0.054 kcal/mol
- SAGGSAGGSAGERIPIKVSIHDPDGRMVPMEIKEIDPDDGTIEVKLPGLPPGIRSIHIMLSAGGSAGGSAGG [r17_260_TrROS] — within error, -1.01 ± 0.31 kcal/mol
- SAGGRGQELTIPNGAPIEDIEELAKKDPDYQVKITEIKMQKPKKDPNGKKRPVPMWMKITLYPAGEKSAGGS [r8_172_TrROS] — higher, 0.116 ± 0.27 kcal/mol
- SAMEVTVTPLPDGTTRVTLPDGVEITHPAPGTGEPVLVEVTEVPGTGTYRITIRSPAGGEELRELLVPVSAG [r14_975_JUSTAS] — higher, 0.986 ± 0.03 kcal/mol
- SAGGSAGGSAGGPSDVTLLEEEVEELPNGTIKTRYTFKLPNGELAEAESTTPLEGPFHHSAGGSAGGSAGGS [r10_532_JUSTAS] — higher, -0.0802 ± 0.2 kcal/mol
- SAGGSAGGSAGPPTSILEVKPGGEVTIKEGGTPVTVPSSVPYINLPEGGSAGSVEVPPELSAGGSAGGSAGG [r11_647_JUSTAS] — higher, 0.394 ± 0.042 kcal/mol
- GMVLVRVELYRPDEEELVAEVEIPFPVPESLLENLSEEEREKLREEAEKAAEKLAEELGDVEVKPEIYTDLS [r1_115_TrMRF] — higher, 0.147 ± 0.095 kcal/mol
- SAGGSLVTELIENNPEFQALLESGTTLKVTFPGGLSGEIEVKNKSPEEIEKAILARNPGPVEIEITGSAGGS [r16_655_JUSTAS] — higher, 0.384 ± 0.11 kcal/mol
- SAGGSAGGSAGGKGWPTVEIPMPENGKPTPDSIEEIAEKFNMPNVEVEQSDDWHKIDVDSAGGSAGGSAGGS [r10_642_TrROS] — higher, 0.92 ± 0.047 kcal/mol
- SMNVKPFSSTISNPAVTVTTPITQPSSGEGTATLTIHRPESVTTTTHPVTDLQALIDSHAAGGVSLTGTSSA [r9_384_JUSTAS] — within error, -0.377 ± 0.095 kcal/mol
- SAGGLEAKITEIDEDGYLRIEIVDPETGELIAEIRIKIELPPPPPVPETEEVLDEDGRKRTVTRLYDRSAGG [r13_9_TrROS_Hall] — higher, 0.214 ± 0.13 kcal/mol
- SAGGSAGGSGMEKKTITITIPVPPDRDVTEEEIKETLKPLGYEEVDIEEIKPAGNSYTVTAVISAGGSAGGS [r20_79_JUSTAS] — higher, 0.212 ± 0.13 kcal/mol
- GKVLAVPVSYDPETGTVTVLEVKDTGTTLATLKPLPVVDISREELEKLAKGLAEENPELKELAEKLVEELAS [r1_330_TrMRF] — higher, -0.145 ± 0.075 kcal/mol
- IKIRFPDGHEITEIDDLSFSGNGYIEINVKVRNPENPQTQPMPIYIPVPPVPPPPVKIERDPGNGKWKYEDS [r1_411_TrROS] — higher, 0.799 ± 0.07 kcal/mol
- SAGDWMMVEMTVDFPPDQITEEEIKQALQEHFGEVEIDWNPGDGRIPITVYMPPGDMNKIQDALKEAGLSAG [r5_378_TrROS] — higher, 0.755 ± 0.053 kcal/mol
- SAGGELREKIEEAVEEAAKAGKPVVKTSEIEARLGRPLTPELLEYVREKGIIERDPKGSITITLPEDKSAGG [r13_188_JUSTAS] — within error, -0.895 ± 0.91 kcal/mol
- SAGGGEVKKVTYVVVIELPPDPETGEPHPLPLVLEREYPADDPEAVESDIKKALDEIDIPEEAKEALSAGGS [r16_40_TrMRF] — higher, 0.403 ± 0.083 kcal/mol
- SAGGMGQEELENLPPEVVAGLLAEEALAEAERLGRPNEAVTVEVELGDVPLRIELTADGKIARIEAGSAGGS [r16_431_TrMRF] — within error, -0.548 ± 0.14 kcal/mol
- SAGGSAGGMKPTVEVRPVPPSARMVVTITLPGSGKKVTIPVPDAPAPEEPERVIEEALAYVKTSSAGGSAGG [r6_331_JUSTAS] — within error, -0.714 ± 0.47 kcal/mol
- SAGGSAGGSAGGLKIQRFPDGNWYRIYLPNGNEHHIPMDEPIKVPNAKEPVKIEPVPPDDSAGGSAGGSAGG [r7_968_TrROS] — within error, -0.936 ± 0.28 kcal/mol
- SAGGRPTMTAEEAAIRLIKELGIPGVKDIKEVVAVVRGGDPDNKPEKGSAILIKAEVPAEEVERLKKESAGG [r13_552_TrMRF] — higher, 0.221 ± 0.045 kcal/mol
- SAGGSAMKVKSIHWQRHGDRPMVRIKIQNPDGKKRERNIPMDDPEKFKKEAKELAKEGKIKEIEPYSAGGSA [r15_575_TrROS] — within error, -0.42 ± 0.81 kcal/mol
- SAGGSAMKVATLKVGGVDHTVEITPLPDGSYPVTTTAEEGGETTTTVVPKSEVKKLEDLPPEYRLLSAGGSA [r15_629_JUSTAS] — within error, -0.414 ± 0.49 kcal/mol
- SAGGALAVKVEFDEEIPTATITYRAPVPGEGGAVDVPADEVAAAIAKALGLPDLEEVTVNVPAPDAPLSAGG [r13_327_JUSTAS] — higher, 0.197 ± 0.075 kcal/mol
- SAGGSMEIPLGETIPIFFDDVIIEIEPETHEIHVIAEDSEKALELIKNLPFPIPAGEVKELSPEEFSAGGSA [r2_418_TrMRF] — higher, 0.352 ± 0.042 kcal/mol
- SAGGSAGGSAGGIWIPGDDIKEALKKMPPDVTKHIFNPDEGRWIMIKVNDNKIDIEPWPSAGGSAGGSAGGS [r10_137_TrROS] — within error, -0.392 ± 0.16 kcal/mol
- SAGGSAGGSAKITIPASQITHVDLETGELLVDHPSGRPIIFRVDPDRPDLILVEDPSGLSLGSAGGSAGGSA [r18_418_TrMRF] — within error, -0.703 ± 0.15 kcal/mol
- SAGGSAGGSSMPLLTKETSESYDPVNNTKTTTERIEEPGSGKFVFTKTTTTYPDGTVTTTLVESAGGSAGGS [r12_115_JUSTAS] — within error, -0.336 ± 0.42 kcal/mol
- SAGGSAMTLEELKGMPIRSWWPGGQKIEMPIKKIDLNDPMFEIKFGGEPIKIPFNHPMRIEIQPPKSAGGSA [r15_355_TrROS] — higher, 0.0637 ± 0.052 kcal/mol
- SAGGSAGGSAGNMKEVEFTIPGAPPDELADNLPPGIKDVEIERNPEARENGGYSIKAYVDSAGGSAGGSAGG [r11_1002_TrROS] — higher, -0.0749 ± 0.17 kcal/mol
- SAGGSAFKELLKEIKEQLQQAPPGEQVEVPIPFPDGYPLRIEINPDENKIEVEYPNGEEEEFDIPPSAGGSA [r15_977_TrROS] — higher, 0.133 ± 0.19 kcal/mol
- SAGWKLKIESPNGAEIEINPESGMIDVKNPDNGQPWSVMIPPENPGEINIFNPGDGEPLQPFKIDEIEPSAG [r5_761_TrROS] — higher, 0.337 ± 0.23 kcal/mol
- SAGMEVTVTDPIPLDPTPDGVPDVKPELVEERAKAAGFTDEIESVDTTPKPDSVTTTVTHPTATLTAGSAGG [r19_398_JUSTAS] — higher, -0.201 ± 0.082 kcal/mol
- SAGGSAGGSIAPDEPLVLEVEVEEVVPGVGEVLLPEWIAEEFPDAVIEVETDGTPVKVTIYRPSAGGSAGGS [r12_900_TrMRF] — higher, 0.743 ± 0.045 kcal/mol
- SAGGSAGGSATVIIMVDPDDIEEALKEAPPNSKVMIHNPDNGYMFEITPNKLEIVEPIPPGDSAGGSAGGSA [r18_246_TrROS] — higher, 0.279 ± 0.058 kcal/mol
- SAGGSAMPKPKVEILKVEKTEDGTVKVPVKVEVTFEDGSKETVPATVTFEVEEGKPLGPEALKEAISAGGSA [r15_836_TrMRF] — within error, -0.377 ± 0.11 kcal/mol
- SAGGSAGGSAGGPKIDHVMLHRNPGNGRYNVTIKLRDPNGKPKDTIMVPMNDPEKILDALSAGGSAGGSAGG [r7_484_TrROS] — higher, -0.0862 ± 0.06 kcal/mol
- SAGGSAGGSAGTIVTPTATYRIEKLPDKRVRIVVGDKEYEVRVGEPFYLPGGVPFEVLDESAGGSAGGSAGG [r11_147_TrMRF] — higher, 0.35 ± 0.13 kcal/mol
- SAGGSAGGTIIDRIKELFGPGMKINIQEHPSEPYYRIRIKNPGFGQKREIHVPPDSIEDILDQISAGGSAGG [r6_612_TrROS] — higher, 0.538 ± 0.33 kcal/mol
- SAGGSAGGSAGLVKLKDKNGKLITLEVKEVEVVEVKEVTLKPKPKPKKTLKLSEEELKKLSAGGSAGGSAGG [r17_484_TrROS_Hall] — higher, -0.143 ± 0.075 kcal/mol
- SAGGSAGGSDPVVIPVPMDDFSKETIKNFIDEAPDDNRPIQMNFPNGKPIYIQVEPDGDIKPVSAGGSAGGS [r12_1054_TrROS] — higher, 0.557 ± 0.041 kcal/mol
